The test concerns the target T1, GST-OsSGT1 (rice (Oryza sativa L.), UniProt Q0JL44 1-367).
T1 sequence (looked up): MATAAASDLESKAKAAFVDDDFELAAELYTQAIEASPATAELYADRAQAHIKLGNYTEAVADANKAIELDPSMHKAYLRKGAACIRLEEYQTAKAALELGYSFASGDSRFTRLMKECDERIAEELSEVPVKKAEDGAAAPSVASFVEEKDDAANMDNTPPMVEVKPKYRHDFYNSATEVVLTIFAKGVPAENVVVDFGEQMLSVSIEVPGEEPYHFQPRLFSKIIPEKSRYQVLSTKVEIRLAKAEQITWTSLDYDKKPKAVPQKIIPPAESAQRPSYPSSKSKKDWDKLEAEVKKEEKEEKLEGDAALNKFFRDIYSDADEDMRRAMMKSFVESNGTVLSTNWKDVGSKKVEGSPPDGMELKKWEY
As to the kind of experiment: pull-down; GST-, GST-fusion-coupled beads used to capture the His tag or His-OsSAPK9; detection with HRP-conjugated anti-His antibody. The conditions noted are these: both partners purified.

This note sets out measurements from PMC6848426 (Rice, 2019).

B1: His-OsSAPK9 (natural protein, rice (Oryza sativa L.), UniProt Q75V57 1-361, looked up)
chain: MERAAAGPLGMEMPIMHDGDRYELVKEIGSGNFGVARLMRNRASGDLVAVKYIDRGEKIDENVQREIINHRSLRHPNIIRFKEVILTPTHLAIVMEYASGGELFERICSAGRFSEDEARFFFQQLISGVSYCHSMQVCHRDLKLENTLLDGSTAPRLKICDFGYSKSSVLHSQPKSTVGTPAYIAPEVLLKKEYDGKIADVWSCGVTLYVMLVGAYPFEDPEDPKNFRKTIQKILGVQYSIPDYVHISPECRDLITRIFVGNPASRITMPEIKNHPWFMKNIPADLMDDGMVSNQYEEPDQPMQNMNEIMQILAEATIPAAGTSGINQFLTDSLDLDDDMEDMDSDLDLDIESSGEIVYAM
notes: also called histidine-tagged OsSAPK9 protein
Turning to B1, the binding result is “binds”.
